Test results reported in IntAct's records for PubMed 18273060.

B1: Growth factor receptor-bound protein 7 (Mus musculus), Q03160 (parent)
chain: MELDLSPTHLSSSPEDVCPTPATPPETPPPPDNPPPGDVKRSQPLPIPSSRKLREEEFQATSLPSIPNPFPELCSPPSQKPILGGSSGARGLLPRDSSRLCVVKVYSEDGACRSVEVAAGATARHVCEMLVQRAHALSDESWGLVESHPYLALERGLEDHEFVVEVQEAWPVGGDSRFIFRKNFAKYELFKSPPHTLFPEKMVSSCLDAQTGISHEDLIQNFLNAGSFPEIQGFLQLRGSGRGSGRKLWKRFFCFLRRSGLYYSTKGTSKDPRHLQYVADVNESNVYVVTQGRKLYGMPTDFGFCVKPNKLRNGHKGLHIFCSEDEQSRTCWLAAFRLFKYGVQLYKNYQQAQSRHLRLSYLGSPPLRSVSDNTLVAMDFSGHAGRVIDNPREALSAAMEEAQAWRKKTNHRLSLPTTCSGSSLSAAIHRTQPWFHGRISREESQRLIGQQGLVDGVFLVRESQRNPQGFVLSLCHLQKVKHYLILPSEDEGCLYFSMDEGQTRFTDLLQLVEFHQLNRGILPCLLRHCCARVAL

Variants of: B1
Settings: with elav1_mouse Elavl1, P70372
Chain of elav1_mouse Elavl1, P70372 (P70372 whole entry): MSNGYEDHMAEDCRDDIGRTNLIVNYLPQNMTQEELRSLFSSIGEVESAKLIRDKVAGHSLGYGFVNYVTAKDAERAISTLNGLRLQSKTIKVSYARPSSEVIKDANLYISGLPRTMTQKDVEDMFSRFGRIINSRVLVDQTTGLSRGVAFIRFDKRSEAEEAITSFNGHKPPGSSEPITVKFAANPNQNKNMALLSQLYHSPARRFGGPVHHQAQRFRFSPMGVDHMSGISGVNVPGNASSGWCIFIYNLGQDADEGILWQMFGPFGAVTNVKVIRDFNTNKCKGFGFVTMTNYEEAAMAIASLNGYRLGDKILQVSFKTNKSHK

| effect of a mutation on the interaction | Variant |
| --- | --- |
| increasing interaction | Y495F |
